Values quoted from earlier work in paper PMC3472031.

Experiments:
[1] = biological target: EspFU peptide (Escherichia coli) (UniProt P0DJ88); assay: ITC
[2] = biological target: EspFU R475 R475 (fifth 47-residue repeat) (Escherichia coli O157:H7) (UniProt P0DJ88)
[3] = biological target: EspFU (Escherichia coli) (UniProt P0DJ88)
[4] = biological target: SOS-A peptide (UniProt Q07889)
[5] = biological target: SOS-E peptide (UniProt Q07889)

For IRTKS SH3 (from UniProt Q9UHR4), the Kd [1] is given as 500 nM.
In the case of N-WASPC 193-501 (from UniProt O00401), the Kd [2] is listed as 35 nM.
For N-WASP 193-501 (from UniProt O00401), the Kd [3] is listed as 35 nM.
For Grb2 (from UniProt P62993), the Kd [4] is given as 54000 nM and the Kd [5] is given as 3500 nM.
